Reference: US6904369

target: Kit, the receptor for SCF (UniProt P10721); test: cell-based or functional assay
Sequence (P10721 26-976 limits assumed): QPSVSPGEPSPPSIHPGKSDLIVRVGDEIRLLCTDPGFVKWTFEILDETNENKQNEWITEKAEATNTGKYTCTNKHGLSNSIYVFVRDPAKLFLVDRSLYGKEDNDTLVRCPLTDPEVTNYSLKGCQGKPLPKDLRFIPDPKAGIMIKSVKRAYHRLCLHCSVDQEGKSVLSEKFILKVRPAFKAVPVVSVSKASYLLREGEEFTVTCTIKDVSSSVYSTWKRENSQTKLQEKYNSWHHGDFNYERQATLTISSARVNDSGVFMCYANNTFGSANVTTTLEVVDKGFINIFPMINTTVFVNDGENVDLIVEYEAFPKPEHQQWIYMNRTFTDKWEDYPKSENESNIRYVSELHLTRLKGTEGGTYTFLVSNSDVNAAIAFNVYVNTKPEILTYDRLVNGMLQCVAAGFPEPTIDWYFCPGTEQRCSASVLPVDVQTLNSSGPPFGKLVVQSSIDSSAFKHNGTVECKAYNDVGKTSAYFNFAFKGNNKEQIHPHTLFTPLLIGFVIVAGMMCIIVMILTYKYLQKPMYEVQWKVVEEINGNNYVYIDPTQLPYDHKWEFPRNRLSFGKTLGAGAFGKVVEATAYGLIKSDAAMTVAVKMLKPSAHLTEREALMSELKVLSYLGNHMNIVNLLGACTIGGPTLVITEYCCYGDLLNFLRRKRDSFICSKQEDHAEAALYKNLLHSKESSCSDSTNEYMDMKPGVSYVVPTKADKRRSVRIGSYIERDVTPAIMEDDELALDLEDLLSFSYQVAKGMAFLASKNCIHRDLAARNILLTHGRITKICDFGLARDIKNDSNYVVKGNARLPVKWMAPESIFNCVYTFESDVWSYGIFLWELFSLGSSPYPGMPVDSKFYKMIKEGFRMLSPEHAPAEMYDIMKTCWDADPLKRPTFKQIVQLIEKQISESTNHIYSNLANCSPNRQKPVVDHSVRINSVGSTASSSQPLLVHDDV

| Biological Activity (Approximate, compared to wild type SCF) (fold lower than wild type SCF) | Substance |
| --- | --- |
| 10 | SCF(R117A, I118A) (from UniProt P21583 26-166) (ligand) |
| 100 | SCF(D25C) (from UniProt P21583 26-166) (ligand) |
| 3 | SCF(K78N, N81K) (from UniProt P21583 26-166) (ligand) |
| 7 | SCF(K62C) (from UniProt P21583 26-166) (ligand) |
